Assay results reported in patent US20160068595A1 (DEVELOPMEN CENTER FOR BIOTECHNOLOGY, published 2016).

T1: human IL-20 (interleukin-20), recombinant (human, UniProt Q9NYY1 25-176)
T1 construct: Analyte in the BIAcore assay and stimulus (300 pM) in the BaF3 proliferation assay; also called hIL-20; human cytokine IL20
T1 sequence (looked up): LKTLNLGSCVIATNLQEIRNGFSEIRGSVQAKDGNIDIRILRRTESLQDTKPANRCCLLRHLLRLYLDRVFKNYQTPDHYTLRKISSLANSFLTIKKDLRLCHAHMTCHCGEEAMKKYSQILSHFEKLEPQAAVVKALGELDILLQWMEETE

B1: FLB35 (HH12 variant) (antibody, V domains shown)
VH: EVQLQESGGGLVQPGGSLRLSCAASGFTFSDAWMDWVRQAPGKGLEWVGEIRSKANNYATYFAESVKGRFTISRDDSKNSLYLQMNSLKTEDTGVYYCTKLDLRYWFFDVWGQGTLVTVSS
VL: DIQMTQSPLSLSVTPGQPASISCKSSQSLLDYDGKTYLNWYQQKPGQSPQLLIYLVSKLDSGVPDRFSGSGSGTDFTLKISRVEAEDVGVYYCWQSTLFPWTFGQGTKVEIKR
B2: FLB35(S) (FLB35 with Ser at CDRL1 position 27E) (antibody, V domains shown)
VH: EVQLQESGGGLVQPGGSLRLSCAASGFTFSDAWMDWVRQAPGKGLEWVGEIRSKANNYATYFAESVKGRFTISRDDSKNSLYLQMNSLKTEDTGVYYCTKLDLRYWFFDVWGQGTLVTVSS
VL: DIQMTQSPLSLSVTPGQPASISCKSSQSLLDSDGKTYLNWYQQKPGQSPQLLIYLVSKLDSGVPDRFSGSGSGTDFTLKISRVEAEDVGVYYCWQSTLFPWTFGQGTKVEIKR
B3: mouse anti-IL-20 monoclonal antibody 7E (antibody, V domains shown)
VH: ELKLEESGGGLVQPGGSMKLSCAASGFTFSDAWMDWVRQSPEKGLEWIAEIRSKANNYATYFAESVKGRFTISRDDSKSGVYLQMNNLRAEDTGIYFCTKLSLRYWFFDVWGAGTTVTVSS
VL: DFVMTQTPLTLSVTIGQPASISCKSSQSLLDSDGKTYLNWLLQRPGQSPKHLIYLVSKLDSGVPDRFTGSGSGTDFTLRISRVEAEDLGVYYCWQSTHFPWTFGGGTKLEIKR
notes: Mouse monoclonal antibody; The BIAcore method captures antibody on anti-human IgG; also called mAb 7E; mAb E7
B4: FLB67 (HH12 variant) (antibody, V domains shown)
VH: EVQLQESGGGLVQPGGSLRLSCAASGFTFSDAWMDWVRQAPGKGLEWVGEIRSKANNYATYFAESVKGRFTISRDDSKNSLYLQMNSLKTEDTGVYYCTKLSLQYWFFDVWGQGTLVTVSS
VL: DIQMTQSPLSLSVTPGQPASISCKSSQSLLDYDGKTYLNWYQQKPGQSPQLLIYQVSKLDSGVPDRFSGSGSGTDFTLKISRVEAEDVGVYYCWQSTHFPWTFGQGTKVEIKR

What was measured:
[1] = biological target: T1, human IL-20 (interleukin-20), …; assay: binding kinetics of CDR mutants; method not named
[2] = biological target: T1, human IL-20 (interleukin-20), …; assay: SPR, BIAcore T100; antibody captured on anti-human IgG CM5 chip, IL-20 as analyte, 1:1 model
Protocol: The human IL-20-binding kinetics of each purified anti-IL-20 antibody was estimated by surface plasmon resonance measurements using the BIAcore T100 biosensor system. The anti-IL-20 Ab was captured on an anti-human IgG immobilized CM5 sensor chip. The immobilized level of anti-human IgG was about 9,000-10,000 RU and the capture level of anti-IL-20 antibody was about 350-400 RU. Binding was carried out at constant flow rates of 30 μL/min of IL-20 at various dilutions in HEPES buffered saline (BIA certified) for 60 seconds. Dissociations were carried out by passing through HEPES buffer for 480 seconds. Regeneration of the surface was carried out by […] 10 mM Glycine pH 2.0/1.5 (50:50) for 40 seconds.
The IL-20 affinity of each of the anti-IL-20 antibodies were calculated from an affinity binding curve fit using the predefined model (1:1 binding) provided by Biacore T100 evaluation software 2.0.

Kd [1] [nM]	koff [1] [s⁻¹]	kon [1] [M⁻¹ s⁻¹]	Kd [2] [nM]	koff [2] [s⁻¹]	kon [2] [M⁻¹ s⁻¹]	Binder
0.437	0.000431	988000	–	–	–	B1
4.03	0.00283	703000	–	–	–	B2
–	–	–	0.781	0.000711	911000	B3
0.803	0.000713	888000	–	–	–	B4
